Consider one molecule from article PMC12678787, “Insects evolved a monomeric histone-fold domain in the CENP-T protein family”.

One series concerns the target T1, bmCENP-T patch 1 mutant (Bombyx mori, UniProt A0A8R2HRP3 894-1016, K895A;R896A;K907A;R908S;K911A).
T1 sequence: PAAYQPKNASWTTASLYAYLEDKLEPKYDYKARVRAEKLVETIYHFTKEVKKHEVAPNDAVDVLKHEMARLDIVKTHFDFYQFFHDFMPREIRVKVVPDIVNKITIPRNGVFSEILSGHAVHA
Put plainly: EMSA; 100 mM NaCl; EMSA: 100 mM NaCl, 4 °C 30 min, 300 ng DNA, 8% glycerol, 5% native PAGE, GelRed stain; protein stock in 10 mM HEPES pH 7.5, 500 mM NaCl; binding buffer and pH not stated. To be noted: protein: recombinant; tags: GST tag cleaved with HRV 3C; blunt.

Another series has as its target T2, bmCENP-T HFD WT (Bombyx mori, UniProt A0A8R2HRP3 894-1016).
T2 sequence: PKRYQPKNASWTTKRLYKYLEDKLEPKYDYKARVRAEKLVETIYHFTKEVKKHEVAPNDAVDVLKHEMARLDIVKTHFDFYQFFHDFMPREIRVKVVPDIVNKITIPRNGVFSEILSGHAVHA
Put plainly: EMSA; 100 mM NaCl; maximum complex at 5x molar excess of protein; EMSA: 100 mM NaCl, 4 °C 30 min, 300 ng DNA, 8% glycerol, 5% native PAGE, GelRed stain; protein stock in 10 mM HEPES pH 7.5, 500 mM NaCl; binding buffer and pH not stated. As to conditions: protein: recombinant; tags: GST tag cleaved with HRV 3C (vector-derived N-terminal residues may remain); blunt.

Another series addresses T3, bmCENP-T patch 2 mutant (Bombyx mori, UniProt A0A8R2HRP3 894-1016, R928S;R963S).
T3 sequence: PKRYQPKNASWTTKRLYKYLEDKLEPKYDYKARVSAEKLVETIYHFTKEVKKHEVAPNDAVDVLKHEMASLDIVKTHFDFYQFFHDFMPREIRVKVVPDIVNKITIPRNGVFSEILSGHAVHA
In words: EMSA; 100 mM NaCl; no effect of mutation; EMSA: 100 mM NaCl, 4 °C 30 min, 300 ng DNA, 8% glycerol, 5% native PAGE, GelRed stain; protein stock in 10 mM HEPES pH 7.5, 500 mM NaCl; binding buffer and pH not stated. As to conditions: protein: recombinant; tags: GST tag cleaved with HRV 3C; blunt. (In EMSA bound probe runs differently from free probe, usually more slowly.)

B1: 12 bp DNA (AA357/AA358) (dsDNA)
DNA 1: TAGACAGCTCTA
DNA 2: TAGAGCTGTCTA
For B1, the figures for the binding result with bmCENP-T patch 1 mutant, in the series with bmCENP-T HFD WT and with bmCENP-T patch 2 mutant were “no binding”, “binds” and “binds”, respectively.
